# B1: caspase-8, Q14790 1-479 (enzyme)
# chain: MDFSRNLYDIGEQLDSEDLASLKFLSLDYIPQRKQEPIKDALMLFQRLQEKRMLEESNLSFLKELLFRINRLDLLITYLNTRKEEMERELQTPGRAQISAYRVMLYQISEEVSRSELRSFKFLLQEEISKCKLDDDMNLLDIFIEMEKRVILGEGKLDILKRVCAQINKSLLKIINDYEEFSKERSSSLEGSPDEFSNGEELCGVMTISDSPREQDSESQTLDKVYQMKSKPRGYCLIINNHNFAKAREKVPKLHSIRDRNGTHLDAGALTTTFEELHFEIKPHDDCTVEQIYEILKIYQLMDHSNMDCFICCILSHGDKGIIYGTDGQEAPIYELTSQFTGLKCPSLAGKPKVFFIQACQGDNYQKGIPVETDSEEQPYLEMDLSSPQTRYIPDEADFLLGMATVNNCVSYRNPAEGTWYIQSLCQSLRERCPRGDDILTILTEVNYEVSNKDDKKNMGKQMPQPTFTLRKKLVFPSD
# Molecular target: death receptor 5 (DR5) (human (endogenous in MB231)), O14763
# Assay: co-IP + pull-down
# Settings: remark: other sources report otherwise
binder,measurement,value
B1,"ratio of caspase-8/DR5 in DR5 precipitates, Axl knocked down relative to siNEG",1.73 fold

# Reference: paper PMC4753803
